In PMC7459580, “Molecular Basis for Endocrine Disruption by Pesticides Targeting Aromatase and Estrogen Receptor” (International Journal of Environmental Research and Public …, 2020) one finds Km, kcat and remaining activity data, which are given here for two molecules.

The Km is the substrate concentration at which the rate is half of its maximum. By kcat is commonly meant the number of substrate molecules converted per active site and unit of time at saturation.

For series [1], the system named is C[C@]12CCC(=O)C=C1CC[C@@H]1[C@@H]2CC[C@]2(C)C(=O)CC[C@@H]12. Kind of series: purified protein. Particulars: heme; NADPH active site.
Series [2] concerns the target T1, aromatase (Aro) (Homo sapiens, UniProt P11511).
T1 construct: gene CYP19A1; recombinant human aromatase; with human cytochrome P450 reductase (hCPR), electron donor
Description: estrone competitive ELISA with purified aromatase and CPR. The class given is biochemical. Particulars: read-out: % residual activity at 1000 nM. (In an ELISA, binding on a coated surface is turned into a signal by an enzyme label.)

T1 sequence (P11511 whole entry): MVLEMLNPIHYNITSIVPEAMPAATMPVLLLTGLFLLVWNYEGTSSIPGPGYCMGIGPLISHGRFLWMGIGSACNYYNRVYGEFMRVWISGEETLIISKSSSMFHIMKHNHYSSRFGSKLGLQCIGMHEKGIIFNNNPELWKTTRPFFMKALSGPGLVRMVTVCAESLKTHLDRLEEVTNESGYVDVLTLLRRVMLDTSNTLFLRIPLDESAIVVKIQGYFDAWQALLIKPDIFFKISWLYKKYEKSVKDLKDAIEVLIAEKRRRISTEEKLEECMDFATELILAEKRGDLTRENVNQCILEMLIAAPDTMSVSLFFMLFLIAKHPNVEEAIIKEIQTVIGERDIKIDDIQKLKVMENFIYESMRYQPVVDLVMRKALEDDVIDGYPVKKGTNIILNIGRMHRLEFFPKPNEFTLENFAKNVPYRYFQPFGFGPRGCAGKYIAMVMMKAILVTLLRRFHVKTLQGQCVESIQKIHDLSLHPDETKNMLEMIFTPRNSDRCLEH
T1 sequence (P16435 2-677, further chain): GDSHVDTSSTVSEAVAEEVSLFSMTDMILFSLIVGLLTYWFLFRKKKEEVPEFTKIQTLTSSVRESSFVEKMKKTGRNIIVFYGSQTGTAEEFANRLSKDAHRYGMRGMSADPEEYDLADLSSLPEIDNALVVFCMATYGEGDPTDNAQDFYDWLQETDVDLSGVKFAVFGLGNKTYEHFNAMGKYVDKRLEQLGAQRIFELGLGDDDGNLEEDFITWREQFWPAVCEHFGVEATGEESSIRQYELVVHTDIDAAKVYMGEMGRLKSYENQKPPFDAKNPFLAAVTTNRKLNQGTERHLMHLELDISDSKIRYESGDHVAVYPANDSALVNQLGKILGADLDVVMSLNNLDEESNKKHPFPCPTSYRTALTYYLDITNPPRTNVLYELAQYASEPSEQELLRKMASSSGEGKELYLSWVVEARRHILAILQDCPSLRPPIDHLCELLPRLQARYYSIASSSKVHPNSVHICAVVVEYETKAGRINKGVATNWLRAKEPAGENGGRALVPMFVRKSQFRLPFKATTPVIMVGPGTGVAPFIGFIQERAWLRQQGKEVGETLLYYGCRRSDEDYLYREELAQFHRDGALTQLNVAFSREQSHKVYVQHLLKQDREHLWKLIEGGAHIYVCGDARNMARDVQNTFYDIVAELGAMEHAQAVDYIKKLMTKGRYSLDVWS

aromatase (Aro) (Homo sapiens): in series [1], the Michaelis-Menten constant (Km) is 0.0413 ± 0.0082 µM and the kcat is 0.0003 ± 1.67e-05 s⁻¹. `CC(C)(C#N)c1cc(Cn2cncn2)cc(C(C)(C)C#N)c1` [anastrozole]: the remaining activity at 1 µM in series [2] was found to be 0.7%.
